Blank lines part the entries; values can stand above or below the molecule they belong to.
Columns and labels:
BGL2 = molecular target: T1, BGL2 (Clavispora sp. NRRL Y-50464, UniProt A0A141S030); assay: pNPG hydrolysis, absorbance at […] nm; format: biochemical; conditions: product inhibition; substrate pNPG; 100 mM citrate buffer, optimal pH and temperature (pH 5, 50°C); read-out: K i (mM) (against glucose)
T1 construct: C-terminal His tag, vector pPICZalphaA, expressed in Pichia X33; partially purified by Ni-NTA; GH3
T1 sequence (A0A141S030 1-804): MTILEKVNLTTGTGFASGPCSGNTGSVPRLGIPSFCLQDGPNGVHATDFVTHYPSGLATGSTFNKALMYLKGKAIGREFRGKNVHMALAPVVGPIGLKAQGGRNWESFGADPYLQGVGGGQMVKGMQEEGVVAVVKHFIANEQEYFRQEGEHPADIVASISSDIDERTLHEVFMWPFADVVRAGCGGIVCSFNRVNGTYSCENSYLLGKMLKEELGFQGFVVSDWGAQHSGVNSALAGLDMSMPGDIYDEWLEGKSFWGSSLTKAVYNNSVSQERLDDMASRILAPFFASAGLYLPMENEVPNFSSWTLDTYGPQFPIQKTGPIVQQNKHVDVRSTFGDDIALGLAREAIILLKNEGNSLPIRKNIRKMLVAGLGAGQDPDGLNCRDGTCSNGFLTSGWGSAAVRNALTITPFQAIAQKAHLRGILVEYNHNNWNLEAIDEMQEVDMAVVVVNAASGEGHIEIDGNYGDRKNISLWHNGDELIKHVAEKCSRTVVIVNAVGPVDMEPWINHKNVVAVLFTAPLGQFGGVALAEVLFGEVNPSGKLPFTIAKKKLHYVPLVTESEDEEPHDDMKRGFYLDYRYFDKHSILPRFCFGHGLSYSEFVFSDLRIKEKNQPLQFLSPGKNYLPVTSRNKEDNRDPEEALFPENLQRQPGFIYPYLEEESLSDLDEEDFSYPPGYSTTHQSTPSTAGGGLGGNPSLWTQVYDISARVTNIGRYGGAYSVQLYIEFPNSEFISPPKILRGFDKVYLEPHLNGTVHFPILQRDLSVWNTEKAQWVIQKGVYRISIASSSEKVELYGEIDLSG

BGL3 = molecular target: T2, BGL3 (Clavispora sp. NRRL Y-50464, UniProt A0A141S029); assay: pNPG hydrolysis, absorbance at […] nm; format: biochemical; conditions: product inhibition; substrate pNPG; 100 mM citrate buffer, optimal pH and temperature (pH 5, 55°C); read-out: K i (mM) (against glucose)
T2 construct: C-terminal His tag, vector pPICZalphaB, expressed in Pichia X33; partially purified by Ni-NTA; GH3
T2 sequence (A0A141S029 1-837): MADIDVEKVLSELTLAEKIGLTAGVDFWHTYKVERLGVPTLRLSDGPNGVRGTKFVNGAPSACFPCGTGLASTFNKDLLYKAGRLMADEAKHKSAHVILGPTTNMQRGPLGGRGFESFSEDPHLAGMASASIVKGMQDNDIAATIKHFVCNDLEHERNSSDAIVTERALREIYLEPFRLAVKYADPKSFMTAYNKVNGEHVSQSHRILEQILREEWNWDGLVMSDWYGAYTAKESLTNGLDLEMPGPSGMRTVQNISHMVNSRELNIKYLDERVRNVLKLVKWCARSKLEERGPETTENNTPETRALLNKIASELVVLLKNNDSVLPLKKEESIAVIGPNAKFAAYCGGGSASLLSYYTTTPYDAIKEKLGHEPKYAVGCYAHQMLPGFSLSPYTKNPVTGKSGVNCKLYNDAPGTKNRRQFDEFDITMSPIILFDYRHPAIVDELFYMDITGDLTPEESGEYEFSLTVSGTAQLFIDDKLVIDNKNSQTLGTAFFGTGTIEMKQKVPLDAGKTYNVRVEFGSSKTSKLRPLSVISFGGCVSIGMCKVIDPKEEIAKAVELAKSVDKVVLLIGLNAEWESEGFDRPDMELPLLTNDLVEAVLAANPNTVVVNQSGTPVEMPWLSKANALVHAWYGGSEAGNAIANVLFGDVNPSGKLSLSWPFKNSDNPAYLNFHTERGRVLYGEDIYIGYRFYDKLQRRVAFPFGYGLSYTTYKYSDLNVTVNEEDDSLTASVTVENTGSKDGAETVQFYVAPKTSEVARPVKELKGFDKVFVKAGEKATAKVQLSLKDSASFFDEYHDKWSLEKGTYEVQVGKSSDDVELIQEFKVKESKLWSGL

purified protein = substrate: O=[N+]([O-])c1ccc(O[C@@H]2O[C@H](CO)[C@@H](O)[C@H](O)[C@H]2O)cc1; assay: purified protein; conditions: 100 mM citrate buffer

- Ki (BGL2): 62 ± 2.49 mM
- Ki (BGL3): 38.3 ± 1.15 mM
Molecule: OC[C@H]1OC(O)[C@H](O)[C@@H](O)[C@@H]1O (stereo partly shown) [glucose]

B1: BGL3 (Clavispora sp. NRRL Y-50464) (protein)
chain: T2 sequence (A0A141S029 1-837)
- Km (purified protein): 180 ± 20 µM
- Vmax (purified protein): 1.63 µmol/min/mg
- kcat (purified protein): 1.4 s⁻¹
- kcat/Km (purified protein): 7710 M⁻¹ s⁻¹

B2: BGL2 (Clavispora sp. NRRL Y-50464) (protein)
chain: T1 sequence (A0A141S030 1-804)
- Km (purified protein): 80 ± 10 µM
- Vmax (purified protein): 5.27 µmol/min/mg
- kcat (purified protein): 9.13 s⁻¹
- kcat/Km (purified protein): 114000 ± 1570 M⁻¹ s⁻¹

Source: publication PMC4806929, “Two New Native β-Glucosidases from Clavispora NRRL Y-50464 Confer Its Dual Function as Cellobiose Fermenting Ethanologenic Yeast” (PLoS ONE, 2016)
